These results are taken from patent US20090324614A1.

The target in assay [1] is rat FcRn/rat β2M expressed on cells (rat) (UniProt P13599). Description: FACS blocking of IgG-Fc, IgG, pH 6.
Assay [2] has as its target soluble human FcRn (shFcRn) (human) (UniProt P55899). As to the kind of experiment: Biacore, IgG immobilized, hFcRn flowed, pH 7.4.

soluble human FcRn (shFcRn) (human), sequence (P55899 24-297 limits assumed, chain 1 of 2): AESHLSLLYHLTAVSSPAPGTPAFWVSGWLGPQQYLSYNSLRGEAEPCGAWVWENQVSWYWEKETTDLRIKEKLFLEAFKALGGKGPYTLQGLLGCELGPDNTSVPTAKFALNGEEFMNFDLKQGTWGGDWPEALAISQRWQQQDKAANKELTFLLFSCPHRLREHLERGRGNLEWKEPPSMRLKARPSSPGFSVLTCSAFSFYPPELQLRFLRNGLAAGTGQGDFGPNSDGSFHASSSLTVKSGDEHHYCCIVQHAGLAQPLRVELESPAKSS
soluble human FcRn (shFcRn) (human), sequence (b2m, as listed by the source limits assumed, chain 2 of 2): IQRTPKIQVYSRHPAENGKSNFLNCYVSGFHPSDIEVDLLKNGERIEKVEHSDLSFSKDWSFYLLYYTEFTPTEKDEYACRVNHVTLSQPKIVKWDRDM
rat FcRn/rat β2M expressed on cells (rat), sequence (P13599 23-366 limits assumed, chain 1 of 2): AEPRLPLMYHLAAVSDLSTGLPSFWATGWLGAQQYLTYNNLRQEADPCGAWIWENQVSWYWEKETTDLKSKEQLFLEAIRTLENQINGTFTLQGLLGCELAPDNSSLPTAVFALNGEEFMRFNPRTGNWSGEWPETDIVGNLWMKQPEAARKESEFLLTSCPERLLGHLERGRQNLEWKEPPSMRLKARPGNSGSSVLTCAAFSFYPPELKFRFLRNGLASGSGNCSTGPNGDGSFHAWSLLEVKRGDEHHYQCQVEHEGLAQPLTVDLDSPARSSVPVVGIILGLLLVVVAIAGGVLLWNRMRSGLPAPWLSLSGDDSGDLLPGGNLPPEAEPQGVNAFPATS
rat FcRn/rat β2M expressed on cells (rat), sequence (b2m, as listed by the source limits assumed, chain 2 of 2): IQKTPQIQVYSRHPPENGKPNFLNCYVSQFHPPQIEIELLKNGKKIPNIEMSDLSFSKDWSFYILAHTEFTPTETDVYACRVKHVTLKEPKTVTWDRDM

Regarding 1G3 mouse anti-rat FcRn IgG (antibody), the IC50 in assay [1] came to 1.5 nM. This counts as single-digit nanomolar.
In assay [2], M161-B04 IgG (DX-2504) (antibody) had a Kd of 7.06 nM.

A word on the IC50: it is the concentration needed to halve the response being measured. Read a high IC50 as weaker potency. What is called Kd is the constant that tells how readily two partners part at equilibrium. A lower Kd goes with tighter binding.
